Experimental data as given in IntAct's records for PubMed 21293379.

B1: Histone-lysine N-methyltransferase NSD2 (Homo sapiens), O96028-1 (parent)
chain: MEFSIKQSPLSVQSVVKCIKMKQAPEILGSANGKTPSCEVNRECSVFLSKAQLSSSLQEGVMQKFNGHDALPFIPADKLKDLTSRVFNGEPGAHDAKLRFESQEMKGIGTPPNTTPIKNGSPEIKLKITKTYMNGKPLFESSICGDSAADVSQSEENGQKPENKARRNRKRSIKYDSLLEQGLVEAALVSKISSPSDKKIPAKKESCPNTGRDKDHLLKYNVGDLVWSKVSGYPWWPCMVSADPLLHSYTKLKGQKKSARQYHVQFFGDAPERAWIFEKSLVAFEGEGQFEKLCQESAKQAPTKAEKIKLLKPISGKLRAQWEMGIVQAEEAASMSVEERKAKFTFLYVGDQLHLNPQVAKEAGIAAESLGEMAESSGVSEEAAENPKSVREECIPMKRRRRAKLCSSAETLESHPDIGKSTPQKTAEADPRRGVGSPPGRKKTTVSMPRSRKGDAASQFLVFCQKHRDEVVAEHPDASGEEIEELLRSQWSLLSEKQRARYNTKFALVAPVQAEEDSGNVNGKKRNHTKRIQDPTEDAEAEDTPRKRLRTDKHSLRKRDTITDKTARTSSYKAMEAASSLKSQAATKNLSDACKPLKKRNRASTAASSALGFSKSSSPSASLTENEVSDSPGDEPSESPYESADETQTEVSVSSKKSERGVTAKKEYVCQLCEKPGSLLLCEGPCCGAFHLACLGLSRRPEGRFTCSECASGIHSCFVCKESKTDVKRCVVTQCGKFYHEACVKKYPLTVFESRGFRCPLHSCVSCHASNPSNPRPSKGKMMRCVRCPVAYHSGDACLAAGCSVIASNSIICTAHFTARKGKRHHAHVNVSWCFVCSKGGSLLCCESCPAAFHPDCLNIEMPDGSWFCNDCRAGKKLHFQDIIWVKLGNYRWWPAEVCHPKNVPPNIQKMKHEIGEFPVFFFGSKDYYWTHQARVFPYMEGDRGSRYQGVRGIGRVFKNALQEAEARFREIKLQREARETQESERKPPPYKHIKVNKPYGKVQIYTADISEIPKCNCKPTDENPCGFDSECLNRMLMFECHPQVCPAGEFCQNQCFTKRQYPETKIIKTDGKGWGLVAKRDIRKGEFVNEYVGELIDEEECMARIKHAHENDITHFYMLTIDKDRIIDAGPKGNYSRFMNHSCQPNCETLKWTVNGDTRVGLFAVCDIPAGTELTFNYNLDCLGNEKTVCRCGASNCSGFLGDRPKTSTTLSSEEKGKKTKKKTRRRRAKGEGKRQSEDECFRCGDGGQLVLCDRKFCTKAYHLSCLGLGKRPFGKWECPWHHCDVCGKPSTSFCHLCPNSFCKEHQDGTAFSCTPDGRSYCCEHDLGAASVRSTKTEKPPPEPGKPKGKRRRRRGWRRVTEGK

Variants of: B1
Conditions: with mdc1_human MDC1, Q14676
Sequence of mdc1_human MDC1, Q14676 (Q14676 whole entry): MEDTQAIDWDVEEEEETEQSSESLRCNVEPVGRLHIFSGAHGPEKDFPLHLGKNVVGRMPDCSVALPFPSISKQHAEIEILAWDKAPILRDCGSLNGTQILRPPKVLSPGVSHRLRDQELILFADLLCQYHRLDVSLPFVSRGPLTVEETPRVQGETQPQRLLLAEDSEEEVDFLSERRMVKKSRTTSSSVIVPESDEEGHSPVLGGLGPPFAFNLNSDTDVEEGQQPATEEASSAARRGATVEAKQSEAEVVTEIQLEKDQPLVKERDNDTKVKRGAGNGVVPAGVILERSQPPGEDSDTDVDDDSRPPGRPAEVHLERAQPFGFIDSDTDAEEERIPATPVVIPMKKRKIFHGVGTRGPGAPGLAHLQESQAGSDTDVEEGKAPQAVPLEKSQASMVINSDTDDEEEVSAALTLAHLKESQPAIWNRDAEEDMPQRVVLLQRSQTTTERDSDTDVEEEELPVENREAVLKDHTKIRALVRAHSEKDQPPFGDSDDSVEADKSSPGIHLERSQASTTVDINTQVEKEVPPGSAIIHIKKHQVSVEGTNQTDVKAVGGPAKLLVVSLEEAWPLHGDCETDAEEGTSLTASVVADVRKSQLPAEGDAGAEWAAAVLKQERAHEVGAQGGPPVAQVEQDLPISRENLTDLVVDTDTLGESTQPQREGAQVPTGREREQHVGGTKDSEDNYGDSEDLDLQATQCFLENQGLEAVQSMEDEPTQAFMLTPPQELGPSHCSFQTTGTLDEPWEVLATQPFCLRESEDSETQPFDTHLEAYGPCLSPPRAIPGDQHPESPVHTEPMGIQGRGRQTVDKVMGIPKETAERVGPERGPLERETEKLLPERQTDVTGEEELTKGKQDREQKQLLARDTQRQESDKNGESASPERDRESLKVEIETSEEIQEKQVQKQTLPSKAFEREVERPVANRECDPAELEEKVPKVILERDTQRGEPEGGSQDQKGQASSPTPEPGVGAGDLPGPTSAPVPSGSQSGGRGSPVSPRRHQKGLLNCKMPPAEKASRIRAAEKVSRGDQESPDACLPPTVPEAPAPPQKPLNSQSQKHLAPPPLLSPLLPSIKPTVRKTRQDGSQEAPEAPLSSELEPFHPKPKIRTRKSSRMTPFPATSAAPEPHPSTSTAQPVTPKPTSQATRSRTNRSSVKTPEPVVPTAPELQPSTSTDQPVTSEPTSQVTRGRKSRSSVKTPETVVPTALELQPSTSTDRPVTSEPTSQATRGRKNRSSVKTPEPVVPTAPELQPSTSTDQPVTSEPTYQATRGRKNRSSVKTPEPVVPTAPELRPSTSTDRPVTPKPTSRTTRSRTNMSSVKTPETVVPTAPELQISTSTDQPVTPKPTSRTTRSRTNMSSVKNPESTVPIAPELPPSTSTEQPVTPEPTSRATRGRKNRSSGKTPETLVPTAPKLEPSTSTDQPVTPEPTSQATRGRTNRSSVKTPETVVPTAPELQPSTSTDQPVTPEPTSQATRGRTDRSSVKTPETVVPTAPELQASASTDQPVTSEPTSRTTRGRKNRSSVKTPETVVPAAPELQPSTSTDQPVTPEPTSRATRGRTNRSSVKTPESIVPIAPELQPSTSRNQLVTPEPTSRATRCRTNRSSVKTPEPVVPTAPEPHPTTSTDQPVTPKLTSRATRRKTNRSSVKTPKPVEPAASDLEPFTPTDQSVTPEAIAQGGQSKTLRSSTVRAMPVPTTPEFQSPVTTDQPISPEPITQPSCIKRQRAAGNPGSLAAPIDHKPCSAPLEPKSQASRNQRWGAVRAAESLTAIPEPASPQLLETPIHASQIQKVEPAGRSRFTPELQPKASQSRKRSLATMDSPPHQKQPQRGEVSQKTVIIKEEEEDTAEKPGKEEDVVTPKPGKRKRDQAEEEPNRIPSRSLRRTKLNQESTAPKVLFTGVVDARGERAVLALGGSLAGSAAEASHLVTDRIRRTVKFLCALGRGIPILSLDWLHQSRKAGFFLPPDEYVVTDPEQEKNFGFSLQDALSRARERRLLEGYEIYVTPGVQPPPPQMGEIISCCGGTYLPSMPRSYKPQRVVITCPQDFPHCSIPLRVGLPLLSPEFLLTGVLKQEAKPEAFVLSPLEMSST

Row | Variant | effect of a mutation on the interaction
1 | S102A | disrupting interaction
